These results are taken from US20050042227A1 (published 2005).

Experiment [1] has as its target mLRP/LRPTmMegT mini-receptor (MEGt) (UniProt Q07954 3293-4444). The experiment can be described thus: cell-based or functional assay.
The target in experiment [2] is T1, recombinant human alpha-L-iduronidase (Aldurazyme) (human, UniProt P35475 27-653, limits assumed).
T1 construct: also called rhIDU; Recombinant human IDU
T1 sequence (looked up): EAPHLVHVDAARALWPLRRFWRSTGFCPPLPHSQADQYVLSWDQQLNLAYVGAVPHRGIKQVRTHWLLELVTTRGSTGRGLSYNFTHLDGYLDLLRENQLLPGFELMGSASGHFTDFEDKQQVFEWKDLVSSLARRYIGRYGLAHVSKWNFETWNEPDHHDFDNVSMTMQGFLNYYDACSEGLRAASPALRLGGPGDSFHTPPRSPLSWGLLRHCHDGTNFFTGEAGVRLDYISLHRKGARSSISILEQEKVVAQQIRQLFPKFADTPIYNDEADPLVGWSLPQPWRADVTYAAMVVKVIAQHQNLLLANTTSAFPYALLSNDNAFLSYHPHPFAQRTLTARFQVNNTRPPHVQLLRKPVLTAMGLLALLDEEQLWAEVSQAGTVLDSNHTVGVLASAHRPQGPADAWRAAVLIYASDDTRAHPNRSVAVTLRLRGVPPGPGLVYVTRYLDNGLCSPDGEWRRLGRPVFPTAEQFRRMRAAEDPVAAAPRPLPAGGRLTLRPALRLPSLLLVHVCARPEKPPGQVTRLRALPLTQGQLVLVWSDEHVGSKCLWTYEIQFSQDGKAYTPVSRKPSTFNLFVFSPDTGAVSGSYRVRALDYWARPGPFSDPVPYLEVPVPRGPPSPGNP
Nature of the experiment: ligand blot, sLRP2 spotted on membrane, detection with antibodies.
Experimental: Membranes were then mounted in a Bio-Rad dot blot apparatus. The second ligand-binding domain of LRP1 (sLRP2, 1 μg/well) was applied to the membrane by vacuum filtration. The membrane was then cut into sections that were placed in separate wells of a 24-well plate. Membranes were blocked in TBS (20 mM Tris pH 7.4, 150 mM Sodium Chloride) with 5 mM Calcium Chloride and 3% non-fat dry milk for 30 minutes. Ligands were incubated with each membrane spot for 2 hours at room temperature. Individual blots were washed 2×5 minutes each with blocking buffer and then incubated with different antibodies in block buffer for one hour at room temperature to detect binding.

Chain of mLRP/LRPTmMegT mini-receptor (MEGt) (Q07954 3293-4444): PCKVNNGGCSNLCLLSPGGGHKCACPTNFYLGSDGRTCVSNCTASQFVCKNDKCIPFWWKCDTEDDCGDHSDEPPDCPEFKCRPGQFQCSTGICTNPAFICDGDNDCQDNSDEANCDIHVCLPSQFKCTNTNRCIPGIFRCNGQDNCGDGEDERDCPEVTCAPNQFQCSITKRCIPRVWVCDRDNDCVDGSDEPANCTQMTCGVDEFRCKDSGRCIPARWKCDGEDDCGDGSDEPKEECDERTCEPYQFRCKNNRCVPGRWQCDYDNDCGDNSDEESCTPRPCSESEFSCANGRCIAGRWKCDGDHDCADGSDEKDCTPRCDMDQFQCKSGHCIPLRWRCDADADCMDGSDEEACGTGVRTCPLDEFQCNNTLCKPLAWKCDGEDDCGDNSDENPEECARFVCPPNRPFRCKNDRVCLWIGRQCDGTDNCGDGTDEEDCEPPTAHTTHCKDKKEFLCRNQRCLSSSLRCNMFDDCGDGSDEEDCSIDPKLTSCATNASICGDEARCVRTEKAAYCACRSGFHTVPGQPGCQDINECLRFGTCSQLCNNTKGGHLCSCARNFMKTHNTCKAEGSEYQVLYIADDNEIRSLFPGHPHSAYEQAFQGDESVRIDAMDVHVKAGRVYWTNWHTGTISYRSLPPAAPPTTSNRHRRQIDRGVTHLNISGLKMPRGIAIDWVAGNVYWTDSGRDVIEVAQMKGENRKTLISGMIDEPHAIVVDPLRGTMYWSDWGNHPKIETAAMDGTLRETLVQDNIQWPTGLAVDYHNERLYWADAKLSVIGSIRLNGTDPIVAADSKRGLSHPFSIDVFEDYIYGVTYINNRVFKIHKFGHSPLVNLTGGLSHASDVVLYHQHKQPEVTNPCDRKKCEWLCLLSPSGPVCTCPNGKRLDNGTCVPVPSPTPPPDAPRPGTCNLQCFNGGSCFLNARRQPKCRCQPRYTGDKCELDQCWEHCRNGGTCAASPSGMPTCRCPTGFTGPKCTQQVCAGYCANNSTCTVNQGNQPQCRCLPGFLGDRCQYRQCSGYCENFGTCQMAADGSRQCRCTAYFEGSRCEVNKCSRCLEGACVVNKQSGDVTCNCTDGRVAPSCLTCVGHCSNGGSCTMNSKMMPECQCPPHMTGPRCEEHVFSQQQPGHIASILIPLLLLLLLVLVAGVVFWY

B1: receptor-associated protein (RAP) (ligand)
chain: YSREKNQPKPSPKRESGEEFRMEKLNQLWEKAQRLHLPPVRLAELHADLKIQERDELAWKKLKLDGLDEDGEKEARLIRNLNVILAKYGLDGKKDARQVTSNSLSGTQEDGLDDPRLEKLWHKAKTSGKFSGEELDKLWREFLHHKEKVHEYNVLLETLSRTEEIHENVISPSDLSDIKGSVLHSRHTELKEKLRSINQGLDRLRRVSHQGYSTEAEFEEPRVIDLWDLAQSANLTDKELEAFREELKHFEAKIEKHNHYQKQLEIAHEKLRHAESVGDGERVSRSREKHALLEGRTKELGYTVKKHLQDLSGRISRARH
As for B1, the “ratio of apical-to-basolateral to basolateral-to-apical permeability coefficient of 125I-RAP, MEGt-transfected MDCK” value in experiment [1] came out at 460 times.

B2: sLRP2, the entire second ligand-binding domain of human LRP1 (receptor, UniProt Q07954 806-1183, looked up)
chain: KCRVNNGGCSSLCLATPGSRQCACAEDQVLDADGVTCLANPSYVPPPQCQPGEFACANSRCIQERWKCDGDNDCLDNSDEAPALCHQHTCPSDRFKCENNRCIPNRWLCDGDNDCGNSEDESNATCSARTCPPNQFSCASGRCIPISWTCDLDDDCGDRSDESASCAYPTCFPLTQFTCNNGRCININWRCDNDNDCGDNSDEAGCSHSCSSTQFKCNSGRCIPEHWTCDGDNDCGDYSDETHANCTNQATRPPGGCHTDEFQCRLDGLCIPLRWRCDGDTDCMDSSDEKSCEGVTHVCDPSVKFGCKDSARCISKAWVCDGDNDCEDNSDEENCESLACRPPSHPCANNTSVCLPPDKLCDGNDDCGDGSDEGELCD
notes: Recombinant soluble fragment made as in Bu and Rennke 1996; also called immobilized LRP
B2: the binding result in experiment [2] is “no binding”.
